Assay results: doi:10.1101/2025.06.26.661714

Target: biotin-conjugated Aβ_(1-40)
Assay: ELISA

B1: solanezumab-Im7 wild-type (solanezumab Fab conjugated to Immunity protein 7) (Fab, V domains shown)
VH: EVQLVESGGGLVQPGGSLRLSCAASGFTFSRYSMSWVRQAPGKGLELVAQINSVGSSTYYPDTVKGRFTISRDNAKNTLYLQMNSLRAEDTAVYYCASGDYWGQGTLVTVSS
VL: DVVMTQSPLSLPVTLGQPASISCRSSQSLIYSDGNAYLHWFLQKPGQSPRLLIYKVSNRFSGVPDRFSGSGSGTDFTLKISRVEAEDVGVYYCSQSTHVPWTFGQGTKVEIK
For B1, which EC50 is on record?
The EC50 was 3.5 nM.
